Literature values, collected in patent US12037378B2, “Variant CD58 domains and uses thereof” (NOVARTIS AG, priority 2019, dated 2024).

Target: T1, CD2 (Homo sapiens, UniProt P06729)
T1 sequence (P06729 25-351): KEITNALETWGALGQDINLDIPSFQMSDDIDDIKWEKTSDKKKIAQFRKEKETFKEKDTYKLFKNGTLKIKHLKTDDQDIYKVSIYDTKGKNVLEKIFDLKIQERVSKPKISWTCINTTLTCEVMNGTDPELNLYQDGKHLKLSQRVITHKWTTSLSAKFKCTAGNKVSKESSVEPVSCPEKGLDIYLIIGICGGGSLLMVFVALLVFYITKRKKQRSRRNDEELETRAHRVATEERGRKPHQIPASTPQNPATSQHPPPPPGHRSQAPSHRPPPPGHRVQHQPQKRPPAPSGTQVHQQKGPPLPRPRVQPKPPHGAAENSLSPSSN
Details: Wang et al., 1999, Cell 97:791-803; cited from earlier work

B1: CD58-6: Amino acids 30-123 (WT) Ig-V like domain of CD58, SEQ ID NO:6 (protein, listed as Homo sapiens)
chain: SQQIYGVVYGNVTFHVPSNVPLKEVLWKKQKDKVAELENSEFRAFSSFKNRVYLDTVSGSLTIYNLTSSDEDEYEMESPNITDTMKFFLYVLES
- binding to CD2: sufficient for binding to CD2
